Source: a protein production outcome set (Wang et al. 2014)

experiment: label from the status in PepcDB records

**Q.** With “MFRALKDKKRFIRNLILTFIIFLFIFLLYQFEAFRDIIFIVLVSGIFAYILKPLYRFLCERTKINKNFLAMAIVLSVIFLILFFLTVLIPSMFKEGESFDGLINGIEFFINDLIMKMKFMELGIFDVIEAQVTEKLNILLVSFATSIINNLISFSENILAFAVIPVLAYYFLAYGDLLSNKFLYCCPMEKRALLKNLGRDVDKVLGKYILGQLLLSLLVGVMTFIGMLILGIKFPLLLAFLNALLNIIPYFGAVLGAIPAIVVALVEGPNKILWVILTFLIIQQIEGNLIAPKITAESIDMHPILIIILLLIGEQIGGLLGMVFIVPIAVVIKVLFDDWDYYMFL” as the sequence, how does the protein production read?
**A.** failed

**Q.** With “MFRCQTKGWCKSLKPKVFLEFVEIKSLIASVLPFVLGSMYAYYNYHQLHLGYLLLFFIASSLFHMATNANDNYQDFLHAPRNDDNQEFLQETNVVGVNQISIGQARTITFGLAGISLIIGLWLVTQTGLPLLWMGLYSYAVGYFYAGGPKPISQGPFGEFFSGFTMGFMIFWIAVFINTYDTAAITWQSTLAVLIASGLAIFAISNIMLANNICDMDEDIALGRHTILYYLGKPVMLQVFAWSYVAGYACLVIAVLMGVLPKFSLLTLLSIIPVWKNTRVFLHKQVKRETFTISIKNATLICLSFIVFMGLGLIFN” as the sequence, how does the protein production read?
**A.** failed

**Q.** With “MFRFNLCVLLFATLATLSAAQEQTPAYVGSAECRDCHTKAAEAWEGSHHAKAWTAPTAENIVADFNDTEFRHDGTLTRFRVEDGRHYITVTEKDGVTTDYPVHSVAGIEPLQQYLLETEPGRIQSFDVVWDTIKQEWFHLYPDQDLPPDDGLHWTGPYKNWNARCAECHATGFEKNYSPVTRSYSSVPVEIGVGCEACHGPGSAHIAWATGKSLEEPLTGLSEYRLTIDYDAGTETVLQQCASCHSRREAHFDGNPVPGIPFNDAYALALLRPGAYHADGQILDEVYVYGSFLQSKMYQQGVSCSNCHEVHSAELKAEGNGVCTQCHSPAGNPSFTTLDSKNYDDPSHHYHEAGTEGAQCKSCHMIERVYMGVDGRRDHSFRIPRPDISLETDSPNACTDCHSDQSSAWAAAAIEEWYPDSENRGLHYGQVLAAGRANAVAARVPLTDLAGDTTQPGIARATALWLLEQSGDATLGAELSSMLTDTDPLVRAAAASAHGLFPPAERAAALEPALDDPRRMVRIAAGKTLLDVPRSALTPSASERLGAALREWQAGLLNRADFPETHIILAGTALTMRNFEGAERAFREVVLMDPQREEAWVMLVRIADAMRGPQAAAQVLDEALQAVPGSDTLNSMRSESLLPPQ” as the sequence, how does the protein production read?
**A.** failed

**Q.** With “MFRIIQPHRWKLAVLMIAANLGLLAFLAFGTIKHVSEWQWLDIVGEGGSALLSLVWLFLVFKSRPAGRVTNYLSVGLSCVFFSWWIDALDEFIRLPAEIEWDHWLESGPMPVGLILLTLGIYHWHREQLAISAQMEKRERGFREHRLYDKLTPLGSADYLKRQLIVSLEQSLCQQQPLSLLALDLDGFSTINNAFGHAEGDEVLSAISHLLVLNLRRQDLLCRLAGDRFVVLMPNTGESQAKLLALELQQAVASLAHKTRQQGERLHLSASVAVVMALNETPDNLLRRLNLSLARARRPLTRTA” as the sequence, how does the protein production read?
**A.** failed

**Q.** For “MFRPENVQALAGLALTLGLCWLVSENRKRFPWGLAIGAVVIQVLLVLVLFGLPQAQQMLRGVNGAVEGLAASTQAGTAFVFGFLAGGDQPYPVSNPGAGFIFAFRVLPVILVVCALSALLWHWKILKWLAQGFGFVFQKTLGLRGPPALATAATIFMGQVEGPIFIRAYLDKLSRSELFMLIAVGMACVSGSTMVAYATILADVLPNAAAHVLTASIISAPAGVLLARIIVPSDPMEKSADLDLSTEDKTYGSSIDAVMKGTTDGLQIALNVGATLIVFVALATMVDKVLGAFPPVGGEPLSIARGLGVVFAPLAWSMGIPWKEAGTAGGLLGVKLILTEFTAFIQLSKVGEALLDERTRMIMTYALCGFANIGSVGMNVAGFSVLVPQRRQEVLGLVWKAMMAGFLATCLTASLVGLMPRSLFGL”, which protein production is on record?
**A.** failed

**Q.** Which protein production does the source give for “MFRWFIAAIEDVYLPVPVMHLLTSNFAPFPWQHLDYTVVQLTKQDSNCLQALFERCTDFFNLTTGQPPASTAAEAEFVDVPAGKTPEDLHVFGLHHPQKGLIGTIIAVQDYPEAATWWIGTMLIDPVYRSQGVGSAFYQAFERWLAAQGVTGIELCAIASNTSGRAFWQRMGFEEIRQTPSRSFGQRHHIAHVYRRCLILLTRRAEFESYDPLNSLNAYLCKTEVINWQHPDIQALAQQLAAGHETPVVIAQACFEWVRDAIRHSVDYQMNPVTWRASDVLQHKTGYCFAKSHLLAALLRANQIPAGFCYQRLSIDDRGTPYSLHGFNAVYLPITGWHRVDPRGNKPGIDTKFSPPIEHLAYQPKLDEEADFSAILAEPLAIVVTALQTHATWDALLHHLPDMTPNTATTIGLYCY” here?
**A.** failed
